T1: SPD_0310 (Streptococcus pneumoniae, UniProt Q04MC1, E40A/R307A)
T1 sequence (Q04MC1 1-494 E40A/R307A): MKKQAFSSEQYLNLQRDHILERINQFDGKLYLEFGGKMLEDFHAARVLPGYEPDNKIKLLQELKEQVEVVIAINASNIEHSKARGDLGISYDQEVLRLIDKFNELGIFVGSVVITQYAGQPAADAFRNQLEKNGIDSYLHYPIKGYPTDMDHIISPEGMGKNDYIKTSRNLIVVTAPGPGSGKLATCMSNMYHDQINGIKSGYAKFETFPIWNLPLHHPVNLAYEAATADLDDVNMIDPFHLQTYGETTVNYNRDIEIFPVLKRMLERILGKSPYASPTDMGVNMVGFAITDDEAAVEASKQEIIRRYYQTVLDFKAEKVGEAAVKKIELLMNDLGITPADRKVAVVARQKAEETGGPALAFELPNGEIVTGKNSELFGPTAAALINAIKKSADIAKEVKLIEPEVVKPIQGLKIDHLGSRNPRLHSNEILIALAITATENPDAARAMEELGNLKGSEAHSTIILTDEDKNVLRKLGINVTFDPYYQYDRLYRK

T2: SPD_0310 (Streptococcus pneumoniae, UniProt Q04MC1, M38A/L39A/G88A/R97A)
T2 sequence (Q04MC1 1-494 M38A/L39A/G88A/R97A): T1 sequence (Q04MC1 1-494 E40A/R307A)

B1: SPD_0310 (natural protein)
chain: T1 sequence (Q04MC1 1-494 E40A/R307A)
notes: SPD_0310, hypothetical protein of the UPF0371 family, S. pneumoniae D39; spd_0310 gene cloned from genomic DNA into pGEX-4T-1 (BamH I/Sal I); Homotetramer by crystal structure and DLS; also called apo-0310; apo-SPD_0310
B2: SPD_1609 (natural protein, S. pneumoniae D39, UniProt A0A0H2ZL87 1-355, looked up)
chain: CSGGSNSTTASSSEEKADKSQELVIYSNSVSNGRGDWLTAKAKEAGFNIKMVDIAGAQLADRVIAEKNNAVADMVFGIGAVDSNKIRDQKLLVQYKPKWLDKIDQSLSDKDNYYNPVIVQPLVLIGAPDVKEMPKDWTELGSKYKGKYSIYGLQGGTGRAILASILVRYLDEKGDLGVSEKGWEVAKEYFANAYTLQKGESSVVKALDKESPIQYGMIWGSGALIGQKEQNVEFKVMTPEIGVPFVTEQTMVLSTSKKQALAKEFIDWFGQSEIQVEYSKKFGSIPANKDALKELPEDTKKFVDQVKPQNIDWEAVGKHLDEWVEKAELEYVK
notes: source: expressed and purified using the GST system
B3: SPD_0227 (natural protein)
chain: MNIEGYSDLLKPELKGKIATADPANSSSAFAQLTNMLQAQGGYKDDKAWSYVKDLFTLIDGIVK
notes: SPD_0227, intracellular iron transporter of S. pneumoniae D39
B4: SPD_0090 (natural protein, S. pneumoniae D39, UniProt A0A0H2ZQK8 1-491, looked up)
chain: CGNLTGNSKKAADSGDKPVIKMYQIGDKPDNLDELLANANKIIEEKVGAKLDIQYLGWGDYGKKMSVITSSGENYDIAFADNYIVNAQKGAYADLTELYKKEGKDLYKALDPAYIKGNTVNGKIYAVPVAANVASSQNFAFNGTLLAKYGIDISGVTSYETLEPVLKQIKEKAPDVVPFAIGKVFIPSDNFDYPVANGLPFVIDLEGDTTKVVNRYEVPRFKEHLKTLHKFYEAGYIPKDVATSDTSFDLQQDTWFVREETVGPADYGNSLLSRVANKDIQIKPITNFIKKNQTTQVANFVISNNSKNKEKSMEILNLLNTNPELLNGLVYGPEGKNWEKIEGKENRVRVLDGYKGNTHMGGWNTGNNWILYINENVTDQQIENSKKELAEAKESPALGFIFNTDNVKSEISAIANTMQQFDTAINTGTVDPDKAIPELMEKLKSEGAYEKVLNEMQKQYDEFLKNKK
notes: as for B2
B5: SPD_0226 (natural protein)
chain: MTVGLSYEDSAVKLLNDGANIKVVYPKEGTVFLPASAAIVKKSKNMENAKKFIDFIISQEVQDTLGTTTTNRPVRKNAKTSENMKPIDKIKTLTEDYDYVIKNKSDIVKKYNEVFTDIQSKQ
notes: SPD_0226, intracellular iron transporter of S. pneumoniae D39
B6: GAPDH (natural protein, S. pneumoniae D39, UniProt A0A0H2US80 1-335, looked up)
chain: MVVKVGINGFGRIGRLAFRRIQNVEGVEVTRINDLTDPVMLAHLLKYDTTQGRFDGTVEVKEGGFEVNGKFIKVSAERDPEQIDWATDGVEIVLEATGFFAKKEAAEKHLKGGAKKVVITAPGGNDVKTVVFNTNHDVLDGTETVISGASCTTNCLAPMAKALQDNFGVVEGLMTTIHAYTGDQMILDGPHRGGDLRRARAGAANIVPNSTGAAKAIGLVIPELNGKLDGSAQRVPTPTGSVTELVAVLEKNVTVDEVNAAMKAASNESYGYTEDPIVSSDIVGMSYGSLFDATQTKVLDVDGKQLVKVVSWYDNEMSYTAQLVRTLEYFAKIAK
notes: GAPDH (Gap) of S. pneumoniae D39, recombinant; also called Gly-3-pho dehydrogenase; source: expressed and purified using the GST system

Tests used:
SPD_0310 [1] = molecular target: T3, SPD_0310 (Streptococcus pneumoniae, UniProt Q04MC1); experiment: SPR; also dialysis/ICP-MS, hemin-agarose pulldown, UV-Vis shift, CD thermal shift, stopped-flow fluorescence; assay type: binding
T3 construct: recombinant SPD_0310 expressed from pGEX-4T-1, GST tag removed with thrombin; homotetramer

SPD_0310 [2] = molecular target: T1, SPD_0310; experiment: fluorescence quenching titration; assay type: binding
SPD_0310 [3] = molecular target: T2, SPD_0310; experiment: fluorescence quenching titration; assay type: binding
[4] = molecular target: SPD_0310 (S. pneumoniae D39) (UniProt Q04MC1); experiment: SPR; OpenSPR; SPD_0310 immobilised on a gold nanoparticle COOH sensor chip; analytes in 1× PBS, 30 μL/min; regeneration with 0.5 to ~10 mM HCl; 1:1 model
[5] = molecular target: the molecule itself; experiment: dynamic light scattering; fresh SPD_0310 in the native state, 3 μM in 1× PBS, 25°C
SPD_0310 [6] = molecular target: B1; experiment: SPR; OpenSPR; SPD_0310 immobilised on a gold nanoparticle COOH sensor chip; analytes in 1× PBS, 30 μL/min; regeneration with 0.5 to ~10 mM HCl; 1:1 model; details: both partners purified

Molecule	Kd (SPD_0310 [6]) [nM]	further results
C=CC1=C(C)C2=Cc3c(C=C)c(C)c4[n]3[Fe]([Cl])[n]3c(c(C)c(CCC(=O)O)c3=CC3=NC(=C4)C(C)=C3CCC(=O)O)=CC1=N2 [hemin]	–	Kd (SPD_0310 [1]): 96.9 nM; % of WT binding constant (SPD_0310 [2]): 11 % of WT binding constant; % of WT binding constant (SPD_0310 [3]): 56 % of WT binding constant
bovine lactoferrin (natural protein)	–	Kd [4]: 303 nM
B1	–	stoichiometry N [5]: 4
B2	6.92 ± 0.08	–
B3	420 ± 30	–
B4	3.41 ± 0.01	–
B5	1070 ± 100	–
B6	103 ± 1.29	–

Source: article PMC9238395, “Identification and Tetramer Structure of Hemin-Binding Protein SPD_0310 Linked to Iron Homeostasis and Virulence of Streptococcus pneumoniae” (mSystems, 2022)
